Experimental findings from article PMC9880023 are described below.

By IC50 is commonly meant the concentration needed to halve the response being measured.

The target of the assay is HA-NRX1βS4(−), expressed on COS-7 cells. Briefly: cell-based competitive binding assay (fluorescence microscopy); COS-7 cells expressing HA-NRX1βS4(−); biotin-AβOs fixed at 100 nM monomer equivalent, SorCS1-Fc varied 0–1,500 nM; 1 h at 4°C.

B1: SorCS1 ectodomain tagged with human immunoglobulin Fc region (SorCS1-Fc) (Fc fusion)
chain: SLSCCPPQHPSSTPRRTLTPRGFPHPGPLGRAPATPPPLFMRPLFAVAPGDRALFLERAGGSRVSVATAARSGRRRRSGTEPEKIEPGEGASRSRRDMLKDGGQQGLGTGARDPGKATRFRMEELRLTSTTFALTGDSAHNQAMVHWSGHNSSVILILTKLYDYNLGSITESSLWRSTDYGTTYEKLNDKVGLKTILSYLYVCPTNKCKIMLLTDPEIESSLLISSDEGATYQKYRLNFYLQSLLFHPKQEDWILAYSQDQKLYSSAEFGRRWQLIQESVVPNRFYWSVMGSSKEPDLVHLEARTVDGHSIYLTCRMQNCTEANRNKPFPGYIDPDSLIVQDDYVFVQLTSGGRPHYYVSYRRSPFAQMKLPKYALPKDMHVISTDENQVFAAVQEWNQNDTYNLYISDTRGVYFTLALENVRSSRGPEGNVMIDLYEVAGIKGMFLANKKIDNQVKTFITYNKGRDWRLLQAPDADLRGDPVHCLLPYCSLHLHLKVSENPYTSGIIASRDTAPSIIVASGNIGSELSDSDISMFVSSDAGNTWRQIFEEEHSILYLDQGGVLVAMKHTSLPIRHLWLSFDEGRSWSKYSFTSIPLFVDGVLGEPGEETLIMTVFGHFSHRSEWQLVKVDYKSIFDRRCAEEDYRPWQLHSQGEACIMGAKRIYKKRKSERKCMQKYAGAMESEPCVCTEADFDCDYGYERHSNGQCLPAFWFNPSSLSKDCSLGQSYLNSAGYRKVVSNNCTDGVREQYTAKPQKCPGKAPRGLRIVTADGKLTAEQGHNVTLMVQLEEGDVQRTLIQVDFGDGIAVSYVNLSSMEDGIKHVYQNVGIFRVTVQVDNSLGSDSAVLYLHVTCPLEHVHLSLPFVTTKNKEVNATAVLWPSQVGTLTYVWWYGNNTEPLITLEGSISFKFTSEGMNTITVQVSAGNAILQDTKTIAVYEEFRSLRLAFSPNLDDYNPDIPEWRRDISRVIKKSLVEATGIPSQHILVAVLPGLPTAAELFVLPYQDGTRENKRSPEDLEQISEVLIHKLNQNLVHFELKPGVQVLVHAAHLTAAPLVDLTPTHS
Take B1: the IC50 is 92.8 nM.
